Laboratory results reported in patent US20250145716A1 (RAKUTEN MEDICAL, published 2025).

Columns and labels:
[1] = biological target: T1, human PD-L1 expressed on cells (human, UniProt Q9NZQ7 19-290); assay: flow cytometry, PD-L1-expressing CHO cells, MFI (FITC)
T1 construct: whole, on cells; One entry covers all human PD-L1-bearing cells; also called huPD-L1 on CHO cells (CHO-hPD-L1); PD-L1 on A431 cells
Method: Wild-type (wt) Chinese hamster ovary (CHO) cells (ATCC) and CHO cells engineered to express huPD-L1 (BPS Bioscience) were seeded at 200,000 cells in 50 μL FACS buffer (PBS containing 1% FBS and 5 mM EDTA) per well of a 96-well plate. Cell viability was assessed by adding 50 μL 2×Zombie Violet (BioLegend). Dead cell controls were also prepared and 2×Zombie violet was added. After incubating 20-30 minutes at room temperature, protected from light, 150 μL FACS buffer were added to each well. The plates were centrifuged, and the supernatant was aspirated. […] The plates were incubated 30 minutes on ice, protected from light. 150 μL FACS buffer were then added to each well and the plate was centrifuged. The supernatant was removed and the cells were washed three times in 200 μL FACS buffer. […] The cells were incubated 30 minutes on ice, protected from light. 150 μL FACS buffer were then added to each well and the plate was centrifuged. Supernatant was removed and the cells were washed twice with 200 μL FACS buffer. The cells were then resuspended in FACS buffer and analyzed by CytoFLEX using the appropriate channels. After gating for whole, single, live cells, the MFI in the APC channel (or FITC channel for human control samples) was normalized to the signal from hybridoma media alone (or isotype control for human control). MFI fold over media alone was determined for each clone supernatant tested.

[2] = biological target: T2, PD-L1-His (Acro Cat PDL-H5229) (human, UniProt Q9NZQ7 19-238); assay: SPR (Biacore 4000), antibody captured on anti-human CM4 chip, PD-L1-His analyte, 37° C.
T2 construct: also called human PD-L1 (SPR analyte); not shown: His tag
Method: The binding affinities of the generated antibodies to human PD-L1 were determined by surface plasmon resonance. […] PD-L1-His (Acro Cat PDL-H5229) was tested for binding in a 3-fold titration series up to 100 nM. Data were collected in HBS-P (pH 7.4) at 37° C. and 25° C.

T2 sequence (Q9NZQ7 19-238 limits assumed): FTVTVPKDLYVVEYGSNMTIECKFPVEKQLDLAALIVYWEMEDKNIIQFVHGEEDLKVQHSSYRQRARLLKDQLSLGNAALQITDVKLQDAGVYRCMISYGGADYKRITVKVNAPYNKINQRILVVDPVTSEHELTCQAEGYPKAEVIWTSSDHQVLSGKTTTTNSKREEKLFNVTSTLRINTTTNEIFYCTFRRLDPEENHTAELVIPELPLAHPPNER
T1 sequence (Q9NZQ7 19-290): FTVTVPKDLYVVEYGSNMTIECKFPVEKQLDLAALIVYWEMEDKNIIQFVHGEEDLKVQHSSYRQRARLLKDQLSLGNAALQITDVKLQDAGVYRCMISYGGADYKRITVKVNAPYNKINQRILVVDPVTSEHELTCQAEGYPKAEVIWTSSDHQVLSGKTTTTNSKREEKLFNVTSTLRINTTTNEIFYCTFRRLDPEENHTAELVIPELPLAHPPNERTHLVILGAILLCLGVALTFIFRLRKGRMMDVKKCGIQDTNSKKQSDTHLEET

B1: 1P9 (antibody, V domains shown)
VH: EVQLVESGGGLVQPGGSLRLSCAASGFTFSTYWMSWVRQAPGKGLEWVANIKQDGGERYYVDSVKGRFTISRDNAKSSLYLQMNSLRAEDTALYYCARLRLYSDYEDYWGQGTLVTVSS
VL: DIQMTQSPSSVSASVGDRVTITCRASQGISSWLAWYQQKPGKAPKLLIYSVSSLQSGVPSRFSGSGSGTDFTLTISSLQPEDSATYYCQQANSLPPTFGGGTKVEIK
notes: Recombinant full-length human antibody expressed in CHO K1 GS KO cells, with wild-type human Fc; also called anti-PD-L1 antibody 1P9; Unconj; 1P9
EC50 [1]: 0.0199 µg/mL
Kd [2]: 1.1 nM
koff [2]: 0.00037 s⁻¹
kon [2]: 330000 M⁻¹ s⁻¹
